Results on two molecules are retold here after PMC8795524.

Common to all, as to test: EMSA
One series concerns the target T1, SAMD9 134-385 K198E (Homo sapiens, UniProt Q5K651 134-385, K198E).
T1 sequence: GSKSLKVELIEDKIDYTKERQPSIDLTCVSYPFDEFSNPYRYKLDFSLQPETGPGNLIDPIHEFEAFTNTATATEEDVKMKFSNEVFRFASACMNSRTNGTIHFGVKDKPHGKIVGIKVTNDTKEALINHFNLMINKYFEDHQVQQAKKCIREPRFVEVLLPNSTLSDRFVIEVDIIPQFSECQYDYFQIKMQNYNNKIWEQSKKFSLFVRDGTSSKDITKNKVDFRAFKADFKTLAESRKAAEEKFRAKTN

For a further series, the target named is T2, SAMD9 134-385 K257E (Homo sapiens, UniProt Q5K651 134-385, K257E).
T2 sequence: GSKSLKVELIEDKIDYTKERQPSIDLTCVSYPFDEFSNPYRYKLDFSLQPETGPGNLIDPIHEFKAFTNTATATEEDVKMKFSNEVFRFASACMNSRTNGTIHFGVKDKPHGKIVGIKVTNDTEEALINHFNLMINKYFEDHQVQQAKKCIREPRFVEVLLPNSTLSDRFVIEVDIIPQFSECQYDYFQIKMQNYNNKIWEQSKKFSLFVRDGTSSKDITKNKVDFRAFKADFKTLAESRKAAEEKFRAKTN

For another series, the target named is T3, SAMD9 134-385 R221E (Homo sapiens, UniProt Q5K651 134-385, R221E).
T3 sequence: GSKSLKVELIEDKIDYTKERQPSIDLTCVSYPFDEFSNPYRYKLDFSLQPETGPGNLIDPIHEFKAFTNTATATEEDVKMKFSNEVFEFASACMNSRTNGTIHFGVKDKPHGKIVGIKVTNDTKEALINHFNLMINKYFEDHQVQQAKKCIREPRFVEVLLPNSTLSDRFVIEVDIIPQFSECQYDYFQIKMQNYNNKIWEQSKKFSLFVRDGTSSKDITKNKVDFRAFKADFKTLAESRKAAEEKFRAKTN

In a further series the target is T4, SAMD9 134-385 (Homo sapiens, UniProt Q5K651 134-385).
T4 sequence: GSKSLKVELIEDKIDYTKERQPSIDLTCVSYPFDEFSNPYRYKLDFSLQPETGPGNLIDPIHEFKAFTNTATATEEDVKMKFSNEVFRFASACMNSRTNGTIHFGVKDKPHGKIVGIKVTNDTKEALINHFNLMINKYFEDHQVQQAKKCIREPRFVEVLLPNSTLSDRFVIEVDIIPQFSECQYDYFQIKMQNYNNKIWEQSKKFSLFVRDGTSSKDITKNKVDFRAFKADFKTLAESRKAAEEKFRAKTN

B1: 5' 6-FAM 22-nt dsDNA (dsDNA)
DNA 1: GCAAATTAATGATTTATTCAAG
DNA 2: CTTGAATAAATCATTAATTTGC
In the case of B1, the binding result in the series with SAMD9 134-385 K198E is on record as “no binding”; with SAMD9 134-385 K257E, “binds”; with SAMD9 134-385 R221E it was “no binding”.

B2: 11-nt dsDNA (dsDNA)
DNA 1: GAGAAAGAGAG
DNA 2: CTCTCTTTCTC
With B2, in the series with SAMD9 134-385, the binding result was “no binding”.
